Drawing on patent US20120316071A1 (published 2012), this text covers ECL signal for 6 molecules.

For assay [1], the target named is T1, rHuman HGF R/c-MET/Fc Chimera, CF (R&D Systems Cat#358-MT/CF) (human, UniProt P08581 25-932). Description: ECL Multispot (MSD), antigen spotted on plate, Fab in solution; blank spot 256.
Assay [2] has as its target T2, rHuman Notch-1/Fc Chimera, CF (R&D Systems Cat#3647-TK) (human).
T2 chain: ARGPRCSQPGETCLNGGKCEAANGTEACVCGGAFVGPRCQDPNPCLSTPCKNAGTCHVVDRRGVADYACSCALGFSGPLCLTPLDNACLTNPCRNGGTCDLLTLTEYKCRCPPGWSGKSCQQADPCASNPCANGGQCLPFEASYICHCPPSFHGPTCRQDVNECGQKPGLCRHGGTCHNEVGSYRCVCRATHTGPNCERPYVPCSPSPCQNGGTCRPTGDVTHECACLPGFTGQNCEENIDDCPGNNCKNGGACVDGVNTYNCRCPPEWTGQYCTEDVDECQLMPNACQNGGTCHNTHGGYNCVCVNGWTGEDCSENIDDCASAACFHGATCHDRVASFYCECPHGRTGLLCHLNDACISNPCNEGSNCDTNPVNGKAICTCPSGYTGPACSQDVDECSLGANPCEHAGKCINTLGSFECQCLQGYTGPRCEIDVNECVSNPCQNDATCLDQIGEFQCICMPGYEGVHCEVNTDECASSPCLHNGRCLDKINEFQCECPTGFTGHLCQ
Described as above.

The target of assay [3] is T3, rHuman CD44/Fc Chimera, CF (R&D Systems Cat#3660-CD) (human, UniProt P16070 21-220). The assay is described as above.
Assay [4] concerns the target T4, rHuman P-Cadherin/Fc Chimera, CF (R&D Systems Cat#861-PC) (human, UniProt P22223 108-654). The assay is described as above.
Assay [5] deals with T5, rHuman Erythropoietin R/Fc Chimera, CF (R&D Systems Cat#963-ER) (human, UniProt P19235 25-250). The assay is described as above.
In assay [6] the target is T1, rHuman HGF R/c-MET/Fc Chimera, CF (R&D …). In words: ECL Multispot (MSD), antigen spotted on plate, Fab in solution; blank spot 438.
Assay [7] has as its target T2, rHuman Notch-1/Fc Chimera, CF (R&D …). The description is as above.
Assay [8] addresses T3, rHuman CD44/Fc Chimera, CF (R&D Systems …). The assay is described as above.
Assay [9] deals with T4, rHuman P-Cadherin/Fc Chimera, CF (R&D …). The assay is described as above.
Assay [10] addresses T5, rHuman Erythropoietin R/Fc Chimera, CF …. The description is as above.
The target in assay [11] is T1, rHuman HGF R/c-MET/Fc Chimera, CF (R&D …). In words: ECL Multispot (MSD), antigen spotted on plate, Fab in solution; blank spot 239.
Assay [12] concerns the target T2, rHuman Notch-1/Fc Chimera, CF (R&D …). The assay is described as above.
Assay [13] concerns the target T3, rHuman CD44/Fc Chimera, CF (R&D Systems …). The assay is described as above.
The target in assay [14] is T4, rHuman P-Cadherin/Fc Chimera, CF (R&D …). The assay is described as above.
Assay [15] addresses T5, rHuman Erythropoietin R/Fc Chimera, CF …. Described as above.
Assay [16] deals with T1, rHuman HGF R/c-MET/Fc Chimera, CF (R&D …). Description: ECL Multispot (MSD), antigen spotted on plate, Fab in solution; blank spot 206.
Assay [17] addresses T2, rHuman Notch-1/Fc Chimera, CF (R&D …). Described as above.
Assay [18] concerns the target T3, rHuman CD44/Fc Chimera, CF (R&D Systems …). The assay is described as above.
For assay [19], the target named is T4, rHuman P-Cadherin/Fc Chimera, CF (R&D …). Described as above.
Assay [20] concerns the target T5, rHuman Erythropoietin R/Fc Chimera, CF …. The description is as above.
Assay [21] concerns the target T1, rHuman HGF R/c-MET/Fc Chimera, CF (R&D …). Description: ECL Multispot (MSD), antigen spotted on plate, Fab in solution; blank spot 479.
The target in assay [22] is T2, rHuman Notch-1/Fc Chimera, CF (R&D …). The assay is described as above.
Assay [23] deals with T3, rHuman CD44/Fc Chimera, CF (R&D Systems …). The description is as above.
The target of assay [24] is T4, rHuman P-Cadherin/Fc Chimera, CF (R&D …). The description is as above.
The target of assay [25] is T5, rHuman Erythropoietin R/Fc Chimera, CF …. Described as above.
Assay [26] deals with T2, rHuman Notch-1/Fc Chimera, CF (R&D …). Description: ECL Multispot (MSD), antigen spotted on plate, Fab in solution; blank spot 331.
Assay [27] concerns the target T3, rHuman CD44/Fc Chimera, CF (R&D Systems …). The assay is described as above.
The target in assay [28] is T4, rHuman P-Cadherin/Fc Chimera, CF (R&D …). Described as above.
Assay [29] deals with T5, rHuman Erythropoietin R/Fc Chimera, CF …. The description is as above.

T1 sequence (P08581 25-932, change not shown): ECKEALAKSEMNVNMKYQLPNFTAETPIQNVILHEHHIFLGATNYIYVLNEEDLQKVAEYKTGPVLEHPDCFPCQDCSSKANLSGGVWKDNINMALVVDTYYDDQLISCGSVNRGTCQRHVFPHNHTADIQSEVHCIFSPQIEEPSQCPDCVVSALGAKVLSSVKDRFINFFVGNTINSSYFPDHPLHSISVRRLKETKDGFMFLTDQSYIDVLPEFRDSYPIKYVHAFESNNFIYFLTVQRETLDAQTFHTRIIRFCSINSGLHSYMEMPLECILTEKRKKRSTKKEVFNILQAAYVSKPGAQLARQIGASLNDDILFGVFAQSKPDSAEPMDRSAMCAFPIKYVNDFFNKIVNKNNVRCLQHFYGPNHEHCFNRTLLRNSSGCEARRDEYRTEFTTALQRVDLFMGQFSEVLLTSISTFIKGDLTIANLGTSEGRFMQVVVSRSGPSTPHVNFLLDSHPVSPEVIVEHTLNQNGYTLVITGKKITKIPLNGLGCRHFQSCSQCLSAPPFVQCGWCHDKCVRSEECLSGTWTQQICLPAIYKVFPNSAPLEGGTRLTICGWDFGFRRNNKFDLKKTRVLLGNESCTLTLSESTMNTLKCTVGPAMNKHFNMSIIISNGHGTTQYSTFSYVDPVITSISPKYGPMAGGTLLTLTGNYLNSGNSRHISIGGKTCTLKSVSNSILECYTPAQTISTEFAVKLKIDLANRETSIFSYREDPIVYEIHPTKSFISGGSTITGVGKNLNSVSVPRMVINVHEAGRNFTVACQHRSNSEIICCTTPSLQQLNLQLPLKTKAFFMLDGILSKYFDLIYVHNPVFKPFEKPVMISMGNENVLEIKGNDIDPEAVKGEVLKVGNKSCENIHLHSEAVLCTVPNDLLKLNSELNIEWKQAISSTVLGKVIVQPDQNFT

B1: Fab VH1-46_IGHD6-6*01_IGHJ1*01 S102A/S103P/S104F/H111F (APFF) & L6_IGKJ1*01 W94R (Fab, V domains shown)
VH: QVQLVQSGAEVKKPGASVKVSCKASGYTFTSYYMHWVRQAPGQGLEWMGIINPSGGSTSYAQKFQGRVTMTRDTSTSTVYMELSSLRSEDTAVYYCAREEYAPFSAEYFQFWGQGTLVTVSS
VL: EIVLTQSPATLSLSPGERATLSCRASQSVSSYLAWYQQKPGQAPRLLIYDASNRATGIPARFSGSGSGTDFTLTISSLEPEDFAVYYCQQRSNRPPWTFGQGTKVEIKR
notes: also called APFF / W94R
Take B1: the ECL signal in [1] is 293; in assay [2], 375; in [3], 443; in assay [4] it was 364; in assay [5], 546.

B2: Fab VH1-46_IGHD6-6*01_IGHJ1*01 S102A/S103P/S104F/H111F (APFF) & L6_IGKJ1*01 W94T (Fab, V domains shown)
VH: QVQLVQSGAEVKKPGASVKVSCKASGYTFTSYYMHWVRQAPGQGLEWMGIINPSGGSTSYAQKFQGRVTMTRDTSTSTVYMELSSLRSEDTAVYYCAREEYAPFSAEYFQFWGQGTLVTVSS
VL: EIVLTQSPATLSLSPGERATLSCRASQSVSSYLAWYQQKPGQAPRLLIYDASNRATGIPARFSGSGSGTDFTLTISSLEPEDFAVYYCQQRSNTPPWTFGQGTKVEIKR
notes: also called APFF / W94T
Regarding B2, the ECL signal in assay [6] worked out at 377; in assay [7], 418; in assay [8], 453; in assay [9] it was 481; in [10], 432.

B3: Fab VH1-46_IGHD6-6*01_IGHJ1*01 S102A/S103P/S104F/H111F (APFF) & L6_IGKJ1*01 N93Q (Fab, V domains shown)
VH: QVQLVQSGAEVKKPGASVKVSCKASGYTFTSYYMHWVRQAPGQGLEWMGIINPSGGSTSYAQKFQGRVTMTRDTSTSTVYMELSSLRSEDTAVYYCAREEYAPFSAEYFQFWGQGTLVTVSS
VL: EIVLTQSPATLSLSPGERATLSCRASQSVSSYLAWYQQKPGQAPRLLIYDASNRATGIPARFSGSGSGTDFTLTISSLEPEDFAVYYCQQRSQWPPWTFGQGTKVEIKR
notes: also called APFF / N93Q
In the case of B3, the ECL signal in [11] came to 309; in [12], 310; in assay [13], 452; in assay [14] it was 304; in assay [15], 477.

B4: Fab VH1-46_IGHD6-6*01_IGHJ1*01 S102A/S103P/S104F/H111F (APFF) & L6_IGKJ1*01 N93S (Fab, V domains shown)
VH: QVQLVQSGAEVKKPGASVKVSCKASGYTFTSYYMHWVRQAPGQGLEWMGIINPSGGSTSYAQKFQGRVTMTRDTSTSTVYMELSSLRSEDTAVYYCAREEYAPFSAEYFQFWGQGTLVTVSS
VL: EIVLTQSPATLSLSPGERATLSCRASQSVSSYLAWYQQKPGQAPRLLIYDASNRATGIPARFSGSGSGTDFTLTISSLEPEDFAVYYCQQRSSWPPWTFGQGTKVEIKR
notes: also called APFF / N93S
In the case of B4, the ECL signal in [16] came to 328; in assay [17], 345; in assay [18] it was 346; in assay [19], 321; in assay [20], 420.

B5: Fab VH1-46_IGHD6-6*01_IGHJ1*01 S102A/S103P/S104F/H111F (APFF) & L6_IGKJ1*01 W94S (Fab, V domains shown)
VH: QVQLVQSGAEVKKPGASVKVSCKASGYTFTSYYMHWVRQAPGQGLEWMGIINPSGGSTSYAQKFQGRVTMTRDTSTSTVYMELSSLRSEDTAVYYCAREEYAPFSAEYFQFWGQGTLVTVSS
VL: EIVLTQSPATLSLSPGERATLSCRASQSVSSYLAWYQQKPGQAPRLLIYDASNRATGIPARFSGSGSGTDFTLTISSLEPEDFAVYYCQQRSNSPPWTFGQGTKVEIKR
notes: also called APFF / W94S
On to B5, for which the ECL signal amounted to 453 in assay [21]; 486 in assay [22]; 469 in assay [23]; 466 in [24]; 506 in assay [25].

B6: Fab VH1-46_IGHD6-6*01_IGHJ1*01 S102A/S103P/S104F/H111F (APFF) & L6_IGKJ1*01 N93H (Fab, V domains shown)
VH: QVQLVQSGAEVKKPGASVKVSCKASGYTFTSYYMHWVRQAPGQGLEWMGIINPSGGSTSYAQKFQGRVTMTRDTSTSTVYMELSSLRSEDTAVYYCAREEYAPFSAEYFQFWGQGTLVTVSS
VL: EIVLTQSPATLSLSPGERATLSCRASQSVSSYLAWYQQKPGQAPRLLIYDASNRATGIPARFSGSGSGTDFTLTISSLEPEDFAVYYCQQRSHWPPWTFGQGTKVEIKR
notes: also called APFF / N93H
On to B6, for which the ECL signal in assay [26] is 342; in assay [27], 345; in assay [28] it was 293; in assay [29], 425.
